Results taken from patent publication US7408027.
Blank lines part the entries; values can stand above or below the substance they belong to.

Columns and labels:
[1] = biological target: taxol-stabilized microtubules made from PC tubulin; assay: microtubule pelleting assay after brain extract phosphorylation
[2] = biological target: taxol-stabilized microtubules made from PC tubulin; assay: microtubule pelleting assay, gel densitometry, fitted; 30 µM polymerized tubulin
[3] = biological target: taxol-stabilized microtubules made from PC tubulin; assay: co-sedimentation of tau with microtubules in taxol, fitted binding curve (control curve)
[4] = biological target: taxol-stabilized microtubules made from PC tubulin; assay: co-sedimentation of tau with taxol-stabilized microtubules (30 µM polymerized tubulin), SDS gel densitometry, fitted binding curve
[5] = biological target: taxol-stabilized microtubules made from PC tubulin; assay: microtubule pelleting assay after 90 min phosphorylation
[6] = biological target: taxol-stabilized microtubules made from PC tubulin; assay: co-sedimentation of tau with taxol-stabilized microtubules, SDS gel densitometry, fitted binding curve
[7] = biological target: taxol-stabilized microtubules made from PC tubulin; assay: microtubule pelleting assay, gel densitometry, fitted
[8] = biological target: taxol-stabilized microtubules made from PC tubulin; assay: microtubule pelleting assay after MAP kinase
[9] = biological target: taxol-stabilized microtubules made from PC tubulin; assay: microtubule pelleting assay after 35 kDal kinase
[10] = biological target: taxol-stabilized microtubules made from PC tubulin; assay: microtubule pelleting assay after 35 kDal kinase, fitted
[11] = biological target: taxol-stabilized microtubules made from PC tubulin; assay: microtubule pelleting assay, microtubules from 10 µM tubulin with 20 µM taxol
[12] = biological target: taxol-stabilized microtubules made from PC tubulin; assay: co-sedimentation of tau with microtubules made from 10 µM tubulin in 20 µM taxol, fitted binding curve

Substance: S404-A mutant of htau34 after 90 min of phosphorylation by the brain extract kinase activity (from UniProt P10636 1-412)
fold decrease of stoichiometry against the unphosphorylated mutant [5]: 2 fold

Substance: htau23 mutant Ser262-Ala phosphorylated with brain extract (from UniProt P10636 1-352)
difference in stoichiometry upon phosphorylation (Dn) (tau/tubulin dimer) [1]: 0.04

Substance: htau34 phosphorylated by the brain extract kinase activity (stage 2-3, up to 24 h) (from UniProt P10636 2-412)
Kd [4]: 10.4 µM
n [4]: 0.16

Substance: htau34 phosphorylated by the brain extract kinase activity for 90 min (stage 1) (from UniProt P10636 2-412)
fold decrease of stoichiometry against unphosphorylated htau34 [5]: 3 fold

Substance: htau23/A404 phosphorylated by the brain extract kinase activity (from UniProt P10636 1-352)
Dn as percent of the unmutated control [1]: 52%
difference in stoichiometry upon phosphorylation (Dn) (tau/tubulin dimer) [1]: 0.17
Kd [6]: 9.3 µM
n [6]: 0.32

Substance: AP18 phosphorylated with the brain extract activity (from UniProt P10636 1-352)
Kd [7]: 6.1 µM
stoichiometry n (tau/tubulin dimer) (tau/tubulin dimer) [7]: 0.48
difference in stoichiometry upon phosphorylation (Dn) (tau/tubulin dimer) [1]: 0.01

Substance: human tau isoform htau40, bacterially expressed, unphosphorylated (from UniProt P10636 2-758)
Kd [6]: 1.1 µM
n [6]: 0.46

Substance: htau40 phosphorylated with MAP kinase (from UniProt P10636 2-758)
difference in stoichiometry upon phosphorylation (Dn) (tau/tubulin dimer) [8]: 0.09
Kd [6]: 1.9 µM
n [6]: 0.37

Substance: htau23 phosphorylated by the 35 kDal kinase (from UniProt P10636 2-352)
reduction in stoichiometry upon phosphorylation (Dn) (tau/tubulin dimer) [9]: 0.28
Kd [10]: 8.8 µM
stoichiometry n (tau/tubulin dimer) (tau/tubulin dimer) [10]: 0.21

Substance: htau23 phosphorylated with GSK3 (from UniProt P10636 2-352)
stoichiometry (tau per tubulin dimer) (per tubulin dimer) [11]: 0.6
Kd [12]: 2400 nM
n [12]: 0.6

Other lines, results leading:

difference in stoichiometry upon phosphorylation (Dn) (tau/tubulin dimer) [1]: 0.33
Kd [2]: 4.9 µM
stoichiometry n (tau/tubulin dimer) (tau/tubulin dimer) [2]: 0.16
Kd [3]: 4.9 µM
n [3]: 0.16
Kd [4]: 4.9 µM
n [4]: 0.16
Substance: htau23 phosphorylated by the brain extract kinase activity (stage 2-3, up to 24 h) (from UniProt P10636 2-352)

Kd [6]: 4.3 µM
n [6]: 0.54
Substance: htau23/A404 (Ser404 replaced by Ala), unphosphorylated (from UniProt P10636 1-758)

Kd [2]: 9.4 µM
stoichiometry n (tau/tubulin dimer) (tau/tubulin dimer) [2]: 0.31
Substance: htau23 mutant Ser202-Ala phosphorylated with brain extract (from UniProt P10636 1-352)

Kd [7]: 1 to 2 µM
Kd [4]: 1.4 µM
n [4]: 0.43
Substance: human tau isoform htau34, bacterially expressed, unphosphorylated (from UniProt P10636 2-412)

difference in stoichiometry upon phosphorylation (Dn) (tau/tubulin dimer) [1]: 0.31
Kd [6]: 9.6 µM
n [6]: 0.15
Substance: htau40 phosphorylated by the brain extract kinase activity (from UniProt P10636 2-758)
